Measured values published in US10906977B2, “Enhancing the therapeutic activity of immune checkpoint inhibitor” (Maine Medical Center Research Institute, priority 2016, dated 2021).

Legend:
TGF-β = experiment: Serum cytokines in B16F10 tumor bearing mice injected with cPG peptide (ELISA); type: in vivo, C57BL/6 mice; conditions: injected 3× per week; serum after 14 days; FIG. 26A
Procedure: FIG. 26A-FIG. 26C is a series of bar charts showing that the injection of a peptide (cPG) containing the HU177 collagen epitope induces expression of the immune suppressive growth factor TGF-β in mouse circulation. C57BL/6 mice were injected subcutaneously with B16F10 melanoma cells (0.5×10^6) and tumors were allowed to form. Mice were next injected 3× per week with […] per mouse of cPG peptide. Serum was […] after 14 days. Serum was diluted in assay buffer and the relative levels of cytokines were examined by ELISA. FIG. 26A is a bar graph wherein data bars represent relative levels of TGF-β as determined by ELISA from control (DMSO) treated mouse and two different cPG peptide treated mice. FIG. 26B is a bar graph wherein data bars represent relative levels of IL-4 as determined by ELISA from control (DMSO) treated mouse and two different cPG peptide treated mice. FIG. 26C is a bar graph wherein data bars represent relative levels of IL-1β as determined by ELISA from control (DMSO) treated mouse and two different cPG peptide treated mice.
C57BL/6 mice were injected subcutaneously with B16F10 melanoma cells (0.5×10^6) and tumors were allowed to form. […] FIG. 26A is a bar graph wherein data bars represent relative levels of TGF-β as determined by ELISA from control (DMSO) treated mouse and two different cPG peptide treated mice. […]

integrin α10β1 [1] = target: T1, integrin α10β1 (Homo sapiens, UniProt O75578+P05556); experiment: Solid-phase integrin binding to denatured collagen
T1 construct: purchased R&D Systems
T1 sequence (O75578 23-1122 limits assumed): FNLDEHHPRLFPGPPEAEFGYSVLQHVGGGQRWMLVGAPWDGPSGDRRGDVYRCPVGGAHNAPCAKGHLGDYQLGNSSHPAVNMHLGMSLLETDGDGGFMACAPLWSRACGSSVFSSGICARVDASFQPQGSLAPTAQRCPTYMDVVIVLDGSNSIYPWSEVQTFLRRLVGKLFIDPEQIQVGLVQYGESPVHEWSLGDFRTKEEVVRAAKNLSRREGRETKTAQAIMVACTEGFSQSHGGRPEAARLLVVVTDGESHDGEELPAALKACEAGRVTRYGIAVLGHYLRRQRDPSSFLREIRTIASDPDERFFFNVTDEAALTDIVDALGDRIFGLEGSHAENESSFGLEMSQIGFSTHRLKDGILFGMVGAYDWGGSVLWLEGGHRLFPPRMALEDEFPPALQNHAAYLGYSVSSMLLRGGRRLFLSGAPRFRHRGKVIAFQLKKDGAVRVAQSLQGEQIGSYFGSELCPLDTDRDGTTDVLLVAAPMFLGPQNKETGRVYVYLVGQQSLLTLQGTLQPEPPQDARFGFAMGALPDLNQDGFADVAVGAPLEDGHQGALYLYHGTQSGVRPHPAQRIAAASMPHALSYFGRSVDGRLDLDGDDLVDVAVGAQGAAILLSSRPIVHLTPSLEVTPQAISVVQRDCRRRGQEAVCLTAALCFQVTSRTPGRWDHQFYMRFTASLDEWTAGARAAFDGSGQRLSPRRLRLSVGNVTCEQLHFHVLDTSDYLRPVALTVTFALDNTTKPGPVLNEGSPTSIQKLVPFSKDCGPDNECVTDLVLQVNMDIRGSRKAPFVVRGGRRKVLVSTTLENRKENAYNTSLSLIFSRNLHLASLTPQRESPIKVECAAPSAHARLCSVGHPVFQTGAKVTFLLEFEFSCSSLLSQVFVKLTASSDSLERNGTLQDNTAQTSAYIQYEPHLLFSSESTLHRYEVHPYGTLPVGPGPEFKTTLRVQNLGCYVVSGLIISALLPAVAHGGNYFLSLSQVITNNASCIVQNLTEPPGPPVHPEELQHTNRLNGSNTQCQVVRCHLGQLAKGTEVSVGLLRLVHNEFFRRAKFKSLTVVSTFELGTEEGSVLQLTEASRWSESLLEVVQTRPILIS
T1 sequence (P05556 21-728 limits assumed): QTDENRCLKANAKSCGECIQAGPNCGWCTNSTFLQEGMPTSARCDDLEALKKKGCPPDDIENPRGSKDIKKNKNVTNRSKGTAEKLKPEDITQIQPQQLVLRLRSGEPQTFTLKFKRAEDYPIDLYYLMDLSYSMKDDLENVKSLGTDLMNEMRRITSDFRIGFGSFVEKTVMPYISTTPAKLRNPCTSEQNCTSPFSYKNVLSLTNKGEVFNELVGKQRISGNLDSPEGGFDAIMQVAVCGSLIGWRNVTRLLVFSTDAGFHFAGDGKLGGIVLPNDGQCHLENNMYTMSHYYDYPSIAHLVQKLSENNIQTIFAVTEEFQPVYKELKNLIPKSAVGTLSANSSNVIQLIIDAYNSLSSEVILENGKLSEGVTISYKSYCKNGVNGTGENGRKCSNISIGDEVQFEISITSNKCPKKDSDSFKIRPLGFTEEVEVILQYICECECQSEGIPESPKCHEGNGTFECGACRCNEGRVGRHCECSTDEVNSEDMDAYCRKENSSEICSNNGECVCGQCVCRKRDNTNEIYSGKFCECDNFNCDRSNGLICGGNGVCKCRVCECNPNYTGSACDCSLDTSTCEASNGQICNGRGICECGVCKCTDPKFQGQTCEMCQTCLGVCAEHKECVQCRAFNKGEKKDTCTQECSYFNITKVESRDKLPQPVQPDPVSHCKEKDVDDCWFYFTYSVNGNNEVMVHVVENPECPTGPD
Procedure: (§1) Plates were coated with 25 μg/ml of native or denatured (boiled 15 minutes) collagen. Collagen epitope peptide PGF and Cont-peptides were immobilized at 100 ug/ml. Integrins (0-2.0 μg/ml) were diluted in binding buffer containing 20 mM Tris, 15 mM NaCl, 1 mM MgCl2, 0.2 mM MnCl2, 0.5% BSA pH 7.4 as described (13). Integrins were allowed to bind for 1 hr and plates washed and incubated with anti-integrin antibodies (1:100 dilution) for 1 hr. Plates were washed and incubated with HRP-labeled secondary antibodies (1:5000 dilution). In a second assay, integrins (0.5 μg/ml) were coated in binding buffer and plates were washed, blocked as before and denatured (boiled 15 minutes) collagen was added (0-10.0 μg/ml). Denatured collagen was detected with anti-collagen antibody (1:1000). For integrin blocking ELISAs, wells were coated with denatured collagen and pre-treated (0.1 μg/ml) with anti-HU177 or control antibody. Following washing, wells were incubated with integrins (2.0 μg/ml) and binding was detected as described. Assays were carried out at least 3 times.

integrin αvβ3 [2] = target: T2, integrin αvβ3 (Homo sapiens, UniProt P05106+P06756); experiment: Solid-phase integrin binding to synthetic HU177 epitope (PGF peptide); conditions: peptide immobilized 100 ug/ml; FIG. 23F
T2 construct: purchased R&D Systems (Minneapolis, Minn.)
T2 sequence (P06756 31-992 limits assumed): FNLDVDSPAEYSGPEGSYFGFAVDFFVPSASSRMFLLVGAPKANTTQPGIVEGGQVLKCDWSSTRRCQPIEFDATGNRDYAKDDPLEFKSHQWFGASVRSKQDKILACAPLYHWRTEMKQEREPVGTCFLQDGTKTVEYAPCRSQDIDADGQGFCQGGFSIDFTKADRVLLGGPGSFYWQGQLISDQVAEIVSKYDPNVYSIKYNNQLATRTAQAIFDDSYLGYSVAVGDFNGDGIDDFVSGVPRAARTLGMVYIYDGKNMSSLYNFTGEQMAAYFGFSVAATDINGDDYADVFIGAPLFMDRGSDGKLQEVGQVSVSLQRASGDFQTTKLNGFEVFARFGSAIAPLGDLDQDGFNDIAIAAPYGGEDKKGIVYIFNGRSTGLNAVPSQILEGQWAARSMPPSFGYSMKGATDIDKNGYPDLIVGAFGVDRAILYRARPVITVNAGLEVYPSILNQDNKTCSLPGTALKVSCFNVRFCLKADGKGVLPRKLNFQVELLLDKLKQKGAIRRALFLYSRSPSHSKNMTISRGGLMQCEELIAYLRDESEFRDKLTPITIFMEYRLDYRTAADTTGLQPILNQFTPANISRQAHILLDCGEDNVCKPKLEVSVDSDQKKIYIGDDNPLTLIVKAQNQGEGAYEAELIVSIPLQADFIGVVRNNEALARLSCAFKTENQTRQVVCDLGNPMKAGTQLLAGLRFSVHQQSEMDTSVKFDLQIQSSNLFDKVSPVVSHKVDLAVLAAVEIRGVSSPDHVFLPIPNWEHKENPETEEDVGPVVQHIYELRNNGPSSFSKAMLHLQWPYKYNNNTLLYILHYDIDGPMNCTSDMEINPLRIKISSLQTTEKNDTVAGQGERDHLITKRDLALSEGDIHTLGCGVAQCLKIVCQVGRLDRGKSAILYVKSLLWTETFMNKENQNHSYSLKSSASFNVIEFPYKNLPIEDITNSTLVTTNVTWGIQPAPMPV
T2 sequence (P05106 27-718 limits assumed): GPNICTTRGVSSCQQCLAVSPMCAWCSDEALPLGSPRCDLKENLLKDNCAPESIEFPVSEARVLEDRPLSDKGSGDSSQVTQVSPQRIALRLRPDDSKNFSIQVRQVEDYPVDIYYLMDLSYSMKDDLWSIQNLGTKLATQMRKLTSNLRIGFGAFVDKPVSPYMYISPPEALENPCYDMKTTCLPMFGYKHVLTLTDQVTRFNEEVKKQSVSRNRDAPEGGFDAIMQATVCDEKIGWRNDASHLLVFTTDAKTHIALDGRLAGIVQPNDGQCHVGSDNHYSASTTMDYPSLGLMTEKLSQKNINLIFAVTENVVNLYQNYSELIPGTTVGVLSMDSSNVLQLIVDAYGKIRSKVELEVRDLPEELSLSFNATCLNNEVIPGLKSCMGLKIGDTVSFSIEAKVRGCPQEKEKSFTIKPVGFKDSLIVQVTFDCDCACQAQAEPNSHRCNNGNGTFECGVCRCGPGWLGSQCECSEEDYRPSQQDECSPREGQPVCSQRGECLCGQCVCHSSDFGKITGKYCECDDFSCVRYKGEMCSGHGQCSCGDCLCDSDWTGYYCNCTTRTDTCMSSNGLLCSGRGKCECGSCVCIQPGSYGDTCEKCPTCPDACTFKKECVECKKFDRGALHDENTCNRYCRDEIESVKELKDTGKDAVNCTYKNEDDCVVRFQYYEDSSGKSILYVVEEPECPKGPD
Procedure: as §1

integrin α2β1 [3] = target: T3, integrin α2β1 (Homo sapiens, UniProt P05556+P17301); experiment: as above; conditions: peptide immobilized 100 ug/ml; FIG. 23F
T3 construct: purchased R&D Systems
T3 sequence (P17301 30-1132 limits assumed): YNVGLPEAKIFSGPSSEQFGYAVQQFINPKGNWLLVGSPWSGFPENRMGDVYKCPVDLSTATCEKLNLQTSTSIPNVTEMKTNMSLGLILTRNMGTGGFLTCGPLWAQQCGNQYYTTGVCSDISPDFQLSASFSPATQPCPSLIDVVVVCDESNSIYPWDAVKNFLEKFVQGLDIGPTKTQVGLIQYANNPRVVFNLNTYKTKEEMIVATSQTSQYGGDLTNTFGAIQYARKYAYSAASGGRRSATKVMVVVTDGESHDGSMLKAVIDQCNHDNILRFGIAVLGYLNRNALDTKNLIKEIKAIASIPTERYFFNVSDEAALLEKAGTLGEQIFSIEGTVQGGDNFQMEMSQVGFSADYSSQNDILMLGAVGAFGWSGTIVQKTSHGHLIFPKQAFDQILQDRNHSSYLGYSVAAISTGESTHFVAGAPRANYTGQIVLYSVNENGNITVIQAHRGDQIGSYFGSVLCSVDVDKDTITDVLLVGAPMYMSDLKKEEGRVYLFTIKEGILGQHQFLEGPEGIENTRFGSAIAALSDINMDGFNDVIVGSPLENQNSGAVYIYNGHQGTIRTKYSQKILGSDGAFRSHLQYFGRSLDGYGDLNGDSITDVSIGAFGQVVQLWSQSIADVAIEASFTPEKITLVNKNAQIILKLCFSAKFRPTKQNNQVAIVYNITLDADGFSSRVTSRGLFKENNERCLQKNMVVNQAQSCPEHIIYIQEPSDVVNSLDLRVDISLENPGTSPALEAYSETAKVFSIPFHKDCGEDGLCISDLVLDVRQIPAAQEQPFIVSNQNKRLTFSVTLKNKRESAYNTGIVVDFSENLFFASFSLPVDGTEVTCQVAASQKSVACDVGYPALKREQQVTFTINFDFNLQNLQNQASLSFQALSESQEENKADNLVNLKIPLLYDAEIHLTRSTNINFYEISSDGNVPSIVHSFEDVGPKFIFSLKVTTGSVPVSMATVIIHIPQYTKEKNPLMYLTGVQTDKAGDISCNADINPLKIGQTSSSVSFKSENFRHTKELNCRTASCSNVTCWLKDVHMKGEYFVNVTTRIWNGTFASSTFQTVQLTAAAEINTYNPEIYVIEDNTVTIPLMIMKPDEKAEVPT
T3 sequence (P05556 21-728 limits assumed): as the sequence (P05556 21-728 limits assumed) above
Procedure: as §1

integrin α10β1 [4] = target: T1, integrin α10β1; experiment: as above; conditions: peptide immobilized 100 ug/ml; FIG. 23F
Procedure: as §1

PDL-1 [5] = experiment: PDL-1 protein in M21 melanoma cells on immobilized XL313 epitope (Western blot); type: cell-based, human; conditions: 15 minute incubation; vs uncoated wells; FIG. 15
Procedure: Integrin αvβ3 expressing melanoma cells (M21) were seeded on control uncoated wells or wells immobilized with the XL313 cryptic collagen epitope (RGDKGE (SEQ ID NO: 1)). Following a 15 minute incubation cell lysates were prepared. The relative levels of PDL-1 or loading control β-actin were assessed by Western blot.
Integrin αvβ3 expressing melanoma cells (M21) were seeded onto control uncoated wells or wells immobilized with the XL313 cryptic collagen epitope (RGDKGE (SEQ ID NO: 1)) (FIG. 15). Following an incubation period, cell lysates were prepared and relative levels of PDL-1 were assessed.

fibroblasts [6] = experiment: Transwell cell migration on native or denatured collagen; type: cell-based, human; conditions: FIG. 20D
Procedure: (§2) Transwell membranes (8.0 um pore size) were coated with 5 μg/ml of native or denatured collagen for 12 hrs at […] as described previously (13). Migration buffer containing RPMI 1640, 1 mM MgCl2, 0.2 mM MnCl2 and 0.5% BSA in the presence or absence of 5× concentrated serum free SKOV-3 CM or 20 ng/ml FGF-2 was placed in the lower chambers. SKOV-3 or fibroblasts (1×105) were resuspended in migration buffer containing RPMI 1640, 1 mM MgCl2, 0.2 mM MnCl2 and 0.5% BSA in the presence or absence of antibodies directed to the HU177 epitope, or α10β1, (10 μg/ml) or 100 uM of the MEK inhibitor ([…]). Cells were added to the top chamber and allowed to migrate from 2 to 4 hrs. Cells remaining on the top of the membranes were removed and cells that had migrated to the underside of the membrane were quantified by direct cell counts of crystal violet stained cells or by measuring the optical density of eluted cell-associated crystal violet dye as previously described (15). Assays were completed at least 3×.

SKOV-3 cells [7] = experiment: as above; type: cell-based, human; conditions: FIG. 20C
Procedure: as §2

integrin α1β1 = target: T4, integrin α1β1 (Homo sapiens, UniProt P05556+P56199); experiment: Solid-phase integrin binding to denatured collagen; conditions: FIG. 23A
T4 construct: purchased R&D Systems (Minneapolis, Minn.)
Procedure: as §1

integrin αvβ3 [8] = target: T2, integrin αvβ3; experiment: Solid-phase integrin binding to denatured collagen; conditions: FIG. 23A
Procedure: as §1

integrin α2β1 [9] = target: T3, integrin α2β1; experiment: Solid-phase integrin binding to denatured collagen; conditions: FIG. 23A
Procedure: as §1

fibroblasts [10] = experiment: Cell adhesion on native or denatured collagen; type: cell-based, human; conditions: FIG. 20B
Procedure: (§3) The wells of non-tissue culture forty-eight well cluster plates were coated for 12 hrs at 4° C. with 5 μg/ml of native or denatured (boiled 15 minutes) collagen prepared as described above. SKOV-3 and fibroblasts were suspended in adhesion buffer containing RPMI 1640, 1 mM MgCl2, 0.2 mM MnCl2 and 0.5% BSA (13) and 1×10^5 cells were added in the presence or absence of anti-HU177 or control antibodies (100 μg/ml). Cells were allowed to attach for 25 minutes. Non-attached cells were removed by washing and attached cells stained with crystal violet as described (13). Wells were washed and the cell-associated crystal violet was eluted with 100 ul per well of 10% acetic acid. Cell adhesion was quantified by measuring the optical density of the eluted crystal violet as described (15). Assays were completed at least 3×.

SKOV-3 cells [11] = experiment: Cell adhesion on native or denatured collagen; type: cell-based, human; conditions: FIG. 20A
Procedure: as §3

PDL-1 [12] = experiment: PDL-1 protein in cells attached to denatured collagen-IV (Western blot); type: cell-based; conditions: M21, CCL-49, HUVEC; vs native collagen-IV; FIG. 14
Procedure: FIG. 14A and FIG. 14B are blots of integrin αvβ3 expressing melanoma cells (M21 and […]) and FIG. 14C is a blot depicting that endothelial cells (HUVEC) were allowed to attach to well coated with either a non-αvβ3 binding ligand (native collagen-IV) or an αvβ3 binding ligand (denatured collagen-IV). Whole cell lysates were prepared and the relative levels of PDL-1 or loading control β-actin were assessed by Western blot.
Integrin αvβ3 expressing melanoma cells M21 (FIG. 14A) and CCL-49 (FIG. 14B) and endothelial cells (HUVEC) (FIG. 14C) were attached to wells coated with either a non-αvβ3 binding ligand (native collagen-IV) or an αvβ3 binding ligand (denatured collagen-IV). Whole cell lysates were prepared and the relative levels of PDL-1 or β-actin loading control were assessed.

For CPGFPGFC [PGF peptide], the “expression of TGF-β in mouse serum” value (TGF-β) was “induce the expression”, the “competition of binding of α10β1 to denatured collagen” value (integrin α10β1 [1]; soluble peptide, FIG. 23G) was “approximately 60%” and the “direct binding of αvβ3 to the synthetic HU177 epitope” value (integrin αvβ3 [2]) was “failed to bind”. For the same substance, the “direct binding of α2β1 to the synthetic HU177 epitope” value (integrin α2β1 [3]) was “bound” and the “binding of α10β1 to the synthetic HU177 epitope, relative to α2β1” value (integrin α10β1 [4]) was 4 fold.

In the case of “RGDKGE (immobilized on wells) [XL313 epitope]”, the “levels of PDL-1 protein in M21 melanoma cells following binding” value (PDL-1 [5]) is reported as “enhanced levels of PDL-1 protein”.

For “denatured collagen: collagen type-I denatured by boiling the solution for 15 minutes”, the “enhancement of fibroblast migration as compared to native collagen” value (fibroblasts [6]) was 19%, the “enhancement of SKOV-3 migration as compared to native collagen” value (SKOV-3 cells [7]) was 34% and the “binding of integrin α1β1 to denatured collagen” value (integrin α1β1) was “minimal interactions”. For the same substance, the “binding of integrin αvβ3 to denatured collagen” value (integrin αvβ3 [8]) was “dose dependently bound”, the “binding of integrin α2β1 to denatured collagen” value (integrin α2β1 [9]) was “dose dependently bound” and the “binding of denatured collagen and integrin α10β1” value (integrin α10β1 [1]; FIG. 23A, 23B) was “dose dependently bound”. For the same substance, the “enhancement of fibroblast adhesion as compared to native collagen” value (fibroblasts [10]) was 29% and the “enhancement of SKOV-3 adhesion as compared to native collagen” value (SKOV-3 cells [11]) was 38%.

For “denatured collagen-IV: αvβ3 binding ECM ligand coated on wells”, the “levels of PDL-1 protein in melanoma and endothelial cells following binding” value (PDL-1 [12]) was “enhanced levels of PDL-1 protein”.
